Measured values as given in IntAct's records for PubMed 32514408.

B1: TNF receptor-associated factor 3 (Homo sapiens), Q13114 (parent)
chain: MESSKKMDSPGALQTNPPLKLHTDRSAGTPVFVPEQGGYKEKFVKTVEDKYKCEKCHLVLCSPKQTECGHRFCESCMAALLSSSSPKCTACQESIVKDKVFKDNCCKREILALQIYCRNESRGCAEQLMLGHLLVHLKNDCHFEELPCVRPDCKEKVLRKDLRDHVEKACKYREATCSHCKSQVPMIALQKHEDTDCPCVVVSCPHKCSVQTLLRSELSAHLSECVNAPSTCSFKRYGCVFQGTNQQIKAHEASSAVQHVNLLKEWSNSLEKKVSLLQNESVEKNKSIQSLHNQICSFEIEIERQKEMLRNNESKILHLQRVIDSQAEKLKELDKEIRPFRQNWEEADSMKSSVESLQNRVTELESVDKSAGQVARNTGLLESQLSRHDQMLSVHDIRLADMDLRFQVLETASYNGVLIWKIRDYKRRKQEAVMGKTLSLYSQPFYTGYFGYKMCARVYLNGDGMGKGTHLSLFFVIMRGEYDALLPWPFKQKVTLMLMDQGSSRRHLGDAFKPDPNSSSFKKPTGEMNIASGCPVFVAQTVLENGTYIKDDTIFIKVIVDTSDLPDP
partner: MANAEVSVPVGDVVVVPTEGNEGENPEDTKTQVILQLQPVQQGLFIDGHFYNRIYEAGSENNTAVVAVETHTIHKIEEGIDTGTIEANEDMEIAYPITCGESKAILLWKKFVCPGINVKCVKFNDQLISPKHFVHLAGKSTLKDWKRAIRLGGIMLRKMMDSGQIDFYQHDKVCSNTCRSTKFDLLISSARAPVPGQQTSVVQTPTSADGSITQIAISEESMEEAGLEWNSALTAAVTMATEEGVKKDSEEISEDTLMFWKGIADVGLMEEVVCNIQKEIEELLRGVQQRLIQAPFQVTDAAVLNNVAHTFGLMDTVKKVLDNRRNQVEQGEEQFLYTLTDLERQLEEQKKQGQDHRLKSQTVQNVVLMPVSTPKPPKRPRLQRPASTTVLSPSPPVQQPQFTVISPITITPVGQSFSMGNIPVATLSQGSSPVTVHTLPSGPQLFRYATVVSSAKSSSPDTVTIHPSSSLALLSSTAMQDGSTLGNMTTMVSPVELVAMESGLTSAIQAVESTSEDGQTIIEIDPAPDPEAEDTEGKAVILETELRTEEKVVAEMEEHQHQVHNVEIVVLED

Variants of: B1
Conditions: with gmeb1_human GMEB1, Q9Y692

| effect of a mutation on the interaction | Variant |
| --- | --- |
| with no effect | MESSKKMDSPGALQTNPPLKLHTDRSAGTPVFVPEQGGYKEKFVKTVEDKYKAEKAHLVLCSPKQTECGHRFCESCMAALLSSSSPKCTACQESIVKDKVFKDNCCKREILALQIYCRNESRGCAEQLMLGHLLVHLKNDCHFEELPCVRPDCKEKVLRKDLRDHVEKACKYREATCSHCKSQVPMIALQKHEDTDCPCVVVSCPHKCSVQTLLRSELSAHLSECVNAPSTCSFKRYGCVFQGTNQQIKAHEASSAVQHVNLLKEWSNSLEKKVSLLQNESVEKNKSIQSLHNQICSFEIEIERQKEMLRNNESKILHLQRVIDSQAEKLKELDKEIRPFRQNWEEADSMKSSVESLQNRVTELESVDKSAGQVARNTGLLESQLSRHDQMLSVHDIRLADMDLRFQVLETASYNGVLIWKIRDYKRRKQEAVMGKTLSLYSQPFYTGYFGYKMCARVYLNGDGMGKGTHLSLFFVIMRGEYDALLPWPFKQKVTLMLMDQGSSRRHLGDAFKPDPNSSSFKKPTGEMNIASGCPVFVAQTVLENGTYIKDDTIFIKVIVDTSDLPDP [C53A;C56A] |
